The target of data set [1] is T1, L7Ae (Pyrococcus abyssi, UniProt P62008 1-123). Put plainly: footprinting (Pb2+); K-loop KTa/KTb protected; EMSA: 150 mM KCl, 1.5 mM MgCl2, 0.2 mM EDTA, 20 mM HEPES pH 7.9, 65 C 10 min, 50 fmol sRNA, 200 nM proteins (Kd: 50-400 nM aCBF5); fluorescence: 300 mM NaCl, 25. (In general: In EMSA bound probe runs differently from free probe, usually more slowly.)
Data set [2] has as its target T1, L7Ae. Put plainly: footprinting (Pb2+); K-loop KTa/KTb protected; A34-U35 enhanced; EMSA: 150 mM KCl, 1.5 mM MgCl2, 0.2 mM EDTA, 20 mM HEPES pH 7.9, 65 C 10 min, 50 fmol sRNA, 200 nM proteins (Kd: 50-400 nM aCBF5); fluorescence: 300 mM NaCl, 25.

B1: Pab91 H/ACA sRNA (structured_RNA)
RNA: GGGUAAUGCCCCUCCCCUCUCACACCUCCGGGAUCAGUGACCGGAGGGCGGUCGGGGAGGGGACACCU
With B1, the binding result with L7Ae [1] is “binds”.

B2: Pab21 H/ACA sRNA (structured_RNA)
RNA: GGGGAUGGGCCCGGCUCCCGCCCUCUCCGGGGAAUCGUGAACCGGGGGUUCCGGCCGGGCCUACAGU
Consider B2, for which the binding result with L7Ae [2] was “binds”.

These data come from PMC3726423.
